B1: Protein arginine N-methyltransferase 1 (Saccharomyces cerevisiae), P38074 (parent)
chain: MSKTAVKDSATEKTKLSESEQHYFNSYDHYGIHEEMLQDTVRTLSYRNAIIQNKDLFKDKIVLDVGCGTGILSMFAAKHGAKHVIGVDMSSIIEMAKELVELNGFSDKITLLRGKLEDVHLPFPKVDIIISEWMGYFLLYESMMDTVLYARDHYLVEGGLIFPDKCSIHLAGLEDSQYKDEKLNYWQDVYGFDYSPFVPLVLHEPIVDTVERNNVNTTSDKLIEFDLNTVKISDLAFKSNFKLTAKRQDMINGIVTWFDIVFPAPKGKRPVEFSTGPHAPYTHWKQTIFYFPDDLDAETGDTIEGELVCSPNEKNNRDLNIKISYKFESNGIDGNSRSRKNEGSYLMH
partner: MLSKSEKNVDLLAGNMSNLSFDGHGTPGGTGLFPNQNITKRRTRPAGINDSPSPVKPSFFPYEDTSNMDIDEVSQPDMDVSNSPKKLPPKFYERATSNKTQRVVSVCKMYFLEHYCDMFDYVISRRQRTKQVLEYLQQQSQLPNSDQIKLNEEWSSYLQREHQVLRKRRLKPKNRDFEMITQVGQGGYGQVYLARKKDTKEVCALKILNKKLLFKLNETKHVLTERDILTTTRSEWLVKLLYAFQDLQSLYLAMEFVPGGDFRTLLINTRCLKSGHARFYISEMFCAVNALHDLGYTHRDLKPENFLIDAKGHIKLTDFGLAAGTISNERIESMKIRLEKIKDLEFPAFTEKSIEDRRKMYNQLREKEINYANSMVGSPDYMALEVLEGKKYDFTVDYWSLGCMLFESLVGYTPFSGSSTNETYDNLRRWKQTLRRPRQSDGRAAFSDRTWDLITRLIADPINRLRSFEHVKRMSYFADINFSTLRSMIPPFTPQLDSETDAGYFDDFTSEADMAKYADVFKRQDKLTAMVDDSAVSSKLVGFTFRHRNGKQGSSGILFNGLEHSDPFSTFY
B2: Protein arginine N-methyltransferase 1 (Saccharomyces cerevisiae), P38074 (parent)
chain: B1 chain

Variants of: B1
Conditions: with dbf2_yeast DBF2, P22204

Row | effect of a mutation on the interaction | Variant
1 | disrupting interaction strength | S9A

Variants of: B2
Conditions: with pp2a2_yeast PPH22, P23595
pp2a2_yeast PPH22, P23595, sequence (P23595 whole entry): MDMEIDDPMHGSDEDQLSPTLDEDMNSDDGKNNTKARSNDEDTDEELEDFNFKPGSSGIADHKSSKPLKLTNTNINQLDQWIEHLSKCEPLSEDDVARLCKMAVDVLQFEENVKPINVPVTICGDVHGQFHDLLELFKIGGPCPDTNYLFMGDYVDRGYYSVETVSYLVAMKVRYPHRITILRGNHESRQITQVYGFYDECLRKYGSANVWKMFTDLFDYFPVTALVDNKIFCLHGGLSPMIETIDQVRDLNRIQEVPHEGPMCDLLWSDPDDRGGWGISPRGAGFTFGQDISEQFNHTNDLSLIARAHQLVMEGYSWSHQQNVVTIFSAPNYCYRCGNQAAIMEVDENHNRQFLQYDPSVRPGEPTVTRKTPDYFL

Row | effect of a mutation on the interaction | Variant
2 | disrupting interaction strength | S9A
